In patent US20230257454A1 (STAIDSON BEIJING BIOPHARMACEUTICALS, published 2023):
Where a chain is given by its changes, count along the chain named.

T1: human C5a (source not stated) (human, UniProt P01031 678-751)
T1 sequence: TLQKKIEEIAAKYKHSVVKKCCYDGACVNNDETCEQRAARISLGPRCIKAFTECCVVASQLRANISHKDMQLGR

B1: Cab43 (reformatted as human IgG1) (antibody, V domains shown)
VH: EVQLVESGGGLVQPGGSLRLSCAASGFTFSNYYIQWVRQAPGKGPEWVGLIRNKAIGETTEFAASVKGRFTISRDDSKNSVYLQMNSLKTEDTAVYYCAGRLGPPGLTWGQGVLVTVSS
VL: DIVMTQSPLSLPVTPGEPASISCRSSQNLLATDGYTYLDWYLQKPGQSPQLLIYGGSKRASGVPDRFSGSGSGTDFTLKISRVEAEDVGVYYCLQHRALPPTFGQGTKLEIK
B2: Cab38 (reformatted as human IgG1) (antibody, V domains shown)
VH: EMQLVESGGGLVQPGGSLRLSCAASGFTFSDYYMQWVRQAPGKGPEWVGLIRNKAVGHTTQYAASVKGRFTISRDDSKNSVYLQMNSLKTEDTAVYYCVSRAGPPGLSWGQGVLVTVSS
VL: B1 VL with N28S, T32S, T36N, L38I, K58N, Y92F
B3: Cab35-IgG1 (antibody, V domains shown)
VH: B2 VH with H58E
VL: B1 VL with N28S, T32S, T36N, L38I, K58N, Y92F
B4: Cab01 scFv (scFv, V domains shown)
VH: EVQLVESGGGMVQPGGSLRVSCAASGFTFTKYYMQWVRQAPGKGPEWVGLIRNKANGGTAEYVASVKDRFTISRDDSKSIAYLQMSSLKTEDTAVYYCVMRDNGYHWGQGVLVTVSS
VL: DIVLTQTPLSLPVTPGEPASISCRSSQRLLHSDGYTYLDWYLQKPGQSPQLLIYGGSNRASGVPDRFSGSGSGTDFTLKISKVEAEDVGVYYCMQHKALPLTFGGGTKVEIK
B5: Cab15 scFv (scFv, V domains shown)
VH: VVQLVESGGGLVQPGGSLKVSCAASGFTFSDYYMQWVRQAPGKGPEWVGLIRNKAIGETTEYAASVKGRFTISRDDSKSIVYLQMSSLKPEDTAVYYCAGRLGPPGLSWGQGVLVTVSS
VL: B1 VL with S7N, N28S, L51V, S81T, R82K, V90I, L94M, R97K
B6: Cab03 scFv (scFv, V domains shown)
VH: EVQLVESGGGLVQPGGSLKVSCAASGFIFSDYYMQWVRQAPGKGPEWVGLIRKKVNGGTTEYAASVKGRFTISRDDSKSIVYLQMSSLKIEDTAVYYCVSRAGPPGLTWGQGVLVTVSS
VL: DIVLTQTPLSLAVSPGEPASISCRSSQSLLASDGYTYLDWYLQKPGQSPQILIYGGSNRASGVPDRFSGRGSGTDFTLKITKVEAEDVGVYYCLQHRALPPTFGQGTKLEIK
B7: Cab13 scFv (scFv, V domains shown)
VH: B5 VH with E58G, E61Q, P90T, A99V, G100S, L102A, V117I
VL: DIVMIQNPLSLPVTPGEPASISCRSSQSLLASDGYNYMDWYLQKPGQSPKVLIYGGSNRASGVPDRFSGSGSGTDFTLKITKVEAEDVGIYYCMQHKVLPPTFGQGTKLEIK
B8: Cab04 scFv (scFv, V domains shown)
VH: B6 VH with E6Q, I28T, K53N, V55A, N56I, E61Q, I90T, T108S, L114V
VL: B4 VL with L4M, T5I, S32T, T74S, M94L, V109L
B9: Cab21 scFv (scFv, V domains shown)
VH: B1 VH with E6Q, R19K, L20V, T28I, N79S, S80I, N86T, S87R, V117I
VL: DAVMTQTPLSLPVTPGEPASISCRSSQSLLASDGYNYIDWYLQRPGQSPKVLIYGGSNRASGVPDRFSGSGSGTYFTLKISKVEAEDVGFYFCLQHRALPPTFGQGTKLEIK
B10: Cab17 scFv (scFv, V domains shown)
VH: VVQLVESGGGLVLPGGSLKVSCAASGFIFSDYYIQWVRQAPGKGPEWVGLIRNKAVGETVQYAASLKGRFTISRDDSKSIAYLQMTSLKTEDTAMYYCVSRAGPPGLTWGQGVLVTVSS
VL: B7 VL with P12S, S28R, N36T, M38V, K50Q, V51I, T81S, I90V, V98A
B11: Cab19 scFv (scFv, V domains shown)
VH: EVQLVESGGGLVQPGGSLKVSCVASGFTFSDYYIQWVRQAPGKGPEWVGLIRNKAVGGTTSYAASVKGRFTISRDDSKSVAYLQMTSLKTEDTAVYFCVSRAGPPGLSWGQGVLVTVSS
VL: B4 VL with L4M, T5I, T7N, R28S, L42Q, S48A, G73A, V83M, L101P
B12: Cab32 (reformatted as human IgG1) (antibody, V domains shown)
VH: B2 VH with H58G
VL: B1 VL with N28S, T32S, T36I, L38I, K58N, Y92F
B13: Cab34 (reformatted as human IgG1) (antibody, V domains shown)
VH: B2 VH with H58G, Q61E
VL: B1 VL with N28S, T32S, T36N, L38I, K58N, Y92F
B14: Cab40 (reformatted as human IgG1) (antibody, V domains shown)
VH: B2 VH with H58Q
VL: B1 VL with N28S, T32S, T36N, L38I, K58N, Y92F
B15: Cab36 (reformatted as human IgG1) (antibody, V domains shown)
VH: B2 VH with H58E, Q61E
VL: B1 VL with N28S, T32S, T36N, L38I, K58N, Y92F
B16: Cab33 (reformatted as human IgG1) (antibody, V domains shown)
VH: B2 VH with H58G
VL: B1 VL with N28S, T32S, T36N, L38I, K58N, Y92F, R97K
B17: Cab18 scFv (scFv, V domains shown)
VH: B5 VH with E61Q, P90T, A99V, G100S, L102A
VL: B7 VL with I5T, A31D, D33N, G34R, N36A, M38V, K50Q, V51I, I53V, T81S
B18: Cab46 (reformatted as human IgG1) (antibody, V domains shown)
VH: B2 VH with M2V, M34I, H58G, Q61T, V81A, Y97F
VL: B1 VL with N28S, T36E, G56A, K58N, R97K
B19: Cab41 (reformatted as human IgG1) (antibody, V domains shown)
VH: B2 VH with H58R
VL: B1 VL with N28S, T32S, T36N, L38I, K58N, Y92F
B20: Cab37 (reformatted as human IgG1) (antibody, V domains shown)
VH: B2 VH with H58F
VL: B1 VL with N28S, T32S, T36N, L38I, K58N, Y92F

What follows are binders tested against T1, human C5a (source not stated) (assay: cell-based or functional assay).

Binder	ROS IC50 [nM]
B1	0.62
B2	0.53
B3	1.28

Biological target: T1, human C5a (source not stated)
Assay: cell-based or functional assay
Remark: another data set of the same source

Binder	ROS IC50 [nM]
B4	1.51
B5	0.64
B6	1.41
B7	1.08
B8	1.87
B9	0.84

Biological target: T1, human C5a (source not stated)
Assay: cell-based or functional assay
Remark: another data set of the same source

Binder	ROS IC50 [nM]
B10	1.87
B11	1.32
B12	1.76
B13	1.61
B14	0.7
B15	1.41
B16	1.7
B17	1.36
B18	0.66
B19	0.7
B20	0.92
